In patent publication US11453711B2, “Fusion proteins of GLP-1 and GDF15 and conjugates thereof” (BEIJING QL BIOPHARMACEUTICAL CO., LTD., priority 2019, dated 2022):

Key:
[1] = Efficacy in DIO mice, daily sc 28 days; format: in vivo, DIO male C57BL/6 mice
Method: FIGS. 6A-6E show In vivo efficacy in DIO mice. To evaluate the body weight, food intake and glucose effects of the fusion proteins, 17 week old DIO mice (C57BL/6 mice on high fat diet for 13 weeks) were dosed everyday subcutaneously with different concentrations of proteins for 28 days. […] FIGS. 6D and 6E show body weight change with dose titrations of MLC089 and MLC093 at 3, 10 and 30 nmol/kg. Data are expressed as mean values and standard error (SEM) for FIGS. 6A, 6C, 6D and 6E. n=5 for each treatment group. For FIG. 6B, a pooled food intake was measured for each treatment group.
(§1) 17 week old DIO male C57BL/6 mice (˜45 g) were injected everyday subcutaneously with designated proteins (i.e., MLC089, MLC093) for 28 days. Food intake and body weight were measured daily and five animals were used for each treatment group. Fasting glucose was also monitored on designated days. Body weight and glucose were monitored for each individual animal, but food intake for each group animals was measured together. Day 1 and Day 28 are first day and last day of molecule dosage. % BW loss=100*(BW on Day n-BW on Day 1)/(BW on Day 1). Cumulative food intake on Day n represents sum of food intake from Day 1 to Day n. Terminal blood was collected and EDTA-2K plasma was prepared and frozen at −80 C for biomarker measurement. Liver was also collected and frozen in liquid nitrogen and store at −80 C. Data are indicated as mean values and standard error (SEM) or pooled values.

[2] = Separate DIO mice study with inactivated control molecules, daily sc 22 days; format: in vivo, DIO mice (C57BL/6 mice on high fat diet)
Method: FIGS. 9A-9G show In vivo efficacy in DIO mice. To evaluate the body weight, food intake and glucose effects of the fusion proteins, 17 week old DIO mice (C57BL/6 mice on high fat diet for 13 weeks) were dosed everyday subcutaneously with different concentrations of proteins for 22 days. […] Data are expressed as mean values and standard error (SEM) for FIGS. 9A and 9C-G. n=5 for each treatment group. For FIG. 9B, a pooled food intake was measured for each treatment group.
as §1

[3] = Body weight and food intake in C57BL/6 mice, fusion protein conjugates, 30 nmol/kg daily 10 days; format: in vivo
Procedure, shortened: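 Male C57BL/6 mice received fusion protein conjugates by daily subcutaneous injection, with dosing running from Day 1 to Day 10. Body weight was recorded daily per animal and food intake daily per group. Body weight reduction was expressed relative to vehicle percent loss from Day 1. Cumulative food intake reduction was expressed as percent decrease versus vehicle.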

[4] = Stability study: SEC-HPLC (% HMW, % LMW), RP-UPLC and LC/MS after 2 weeks storage; format: physicochemical
Method: To test the stability, the different conjugated fusion proteins were formulated in buffers with different compositions (pH6, 7, 7.4 and 8.0) and stored at 4° C. and 37° C. or 40° C. for 2 weeks. The % High Molecular Weight aggregate (HMW) and % Low Molecular Weight (LMW) were analyzed by size exclusion chromatography (SEC)-HPLC. The concentration and modifications were analyzed by reverse phase (RP)-UPLC and LC/MS.

B1: MLC093: fusion polypeptide SEQ ID NO: 381 conjugated with Moiety B at 33C of Linker (conjugate)
chain: HGEGTFTSDVSSYLEEQAAKEFIAWLVRGGGGAQPGAQPGAQPGAQPGAQPGAQPGAQPGAQPCQEPGAQPGQEPGAQPGQEPGAQPGQEPGAQPGQEPGAQPGQEPGAQPARQGDHCPLGPGRCCRLHTVRASLEDLGWADWVLSPREVQVTMCIGACPSQFRAANLHAQIKTSLHRLKPDTVPAPCCVPASYNPMVLIQKTDTGVSLQTYDDLLAKDCHCI
modifications: Moiety B conjugated at linker Cys33
[1]; DIO mice, 30 nmol/kg daily 28 days, FIG. 6A
  body weight reduction efficacy: much better body weight reduction efficacy than Semaglutide and GDF15 derivative (MLC014)
[1]; DIO mice, 3, 10 and 30 nmol/kg, FIGS. 6D and 6E
  dose dependence of body weight reduction: dose dependent efficacy on body weight reduction
[1]; DIO mice, FIG. 6C
  fasting glucose: reached similar level to Semaglutide
[1]; DIO study, FIG. 6
  efficacy: better efficacy than Semaglutide and GDF15 derivative (MLC014)
[2]; Day 22, FIG. 9G, relative to vehicle or MLC114 and MLC113
  liver triglyceride contents: reduction of liver triglyceride contents
[2]; separate DIO study, FIG. 9A-9G, versus MLC114 and MLC113
  efficacy: better efficacy than corresponding control molecules having inactivated GLP-1 or GDF15 mutants
[2]; separate DIO study, FIG. 9A, versus MLC114 and MLC113
  body weight reduction: better body weight reduction, food intake suppression and glucose control
[2]; separate DIO study, FIG. 9B, versus MLC114 and MLC113
  food intake suppression: better body weight reduction, food intake suppression and glucose control
[2]; separate DIO study, FIG. 9C, versus MLC114 and MLC113
  glucose control: better body weight reduction, food intake suppression and glucose control
[2]; terminal plasma Day 22, FIG. 9D, relative to vehicle or MLC114 and MLC113
  plasma triglyceride level: therapeutic efficacy in reducing plasma triglyceride, cholesterol and insulin levels
[2]; terminal plasma Day 22, FIG. 9E, relative to vehicle or MLC114 and MLC113
  plasma cholesterol level: therapeutic efficacy in reducing plasma triglyceride, cholesterol and insulin levels
[2]; terminal plasma Day 22, FIG. 9F, relative to vehicle or MLC114 and MLC113
  plasma insulin level: therapeutic efficacy in reducing plasma triglyceride, cholesterol and insulin levels
[3]
  Body weight reduction at 30 nmol/kg (% reduction compared to vehicle)(Day11): 26.2%
  Cumulative food intake reduction at 30 nmol/kg (% reduction compared to vehicle)(Day11): 43.8%
[4]; 4.65 mg/mL at 4° C., Day 0
  HMW %: 0%
  LMW %: 0.43%
  Main peak %: 99.56%
[4]; 4.65 mg/mL at 4° C., Day 7
  HMW %: 0%
  LMW %: 0.51%
  Main peak %: 99.46%
[4]; 4.65 mg/mL at 4° C., Day 14
  HMW %: 0%
  LMW %: 0.39%
  Main peak %: 99.6%
[4]; 4.65 mg/mL at 37° C., Day 0
  HMW %: 0%
  LMW %: 0.43%
  Main peak %: 99.56%
[4]; 4.65 mg/mL at 37° C., Day 7
  HMW %: 0.53%
  LMW %: 0.56%
  Main peak %: 98.86%
[4]; 4.65 mg/mL at 37° C., Day 14
  HMW %: 0.8%
  LMW %: 0.53%
  Main peak %: 98.6%
[4]; 20 mg/mL at 4° C., Day 0
  HMW %: 0%
  LMW %: 0.38%
  Main peak %: 99.6%
[4]; 20 mg/mL at 4° C., Day 7
  HMW %: 0%
  LMW %: 0.49%
  Main peak %: 99.49%
[4]; 20 mg/mL at 4° C., Day 14
  HMW %: 0%
  LMW %: 0.44%
  Main peak %: 99.24%
[4]; 20 mg/mL at 37° C., Day 0
  HMW %: 0%
  LMW %: 0.38%
  Main peak %: 99.6%
[4]; 20 mg/mL at 37° C., Day 7
  HMW %: 1.03%
  LMW %: 0.53%
  Main peak %: 98.38%
[4]; 20 mg/mL at 37° C., Day 14
  HMW %: 1.81%
  LMW %: 0.55%
  Main peak %: 97.64%
[4]; 20 mg/mL at 40° C., Day 0
  HMW %: 0.56%
  LMW %: 0.54%
  Main peak %: 98.83%
[4]; 20 mg/mL at 40° C., Day 14
  HMW %: 2.26%
  LMW %: 0.84%
  Main peak %: 96.76%
[4]; 4° C., 37° C. and 40° C., 2 weeks
  physical and chemical stability: high physical and chemical stability
